Measurements: patent US20250326865A1, “C-MET PROTEIN-BINDING PEPTIDE COMPLEX” (PeptiDream Inc., priority 2021, published 2025)
Blank lines part the entries; values can stand above or below the molecule they belong to. Starred links: 1 amine or outer side, 2 acyl side, 3 side chain; linkers in the order of their positions; H or OH if unused. Positions of bridges follow the written chain, without caps; N, C: chain ends. Non-standard residues stand in square brackets, D forms with d. Residues, ends and D or L forms follow the SMILES beside them. Primed or numbered codes have the meaning given here. Chains are numbered I, II in the order given. No end group written: not given here. OCOPEG13OCO = 3,6,9,12,15,18,21,24,27,30,33-undecaoxapentatriacontane-1,35-diylbis(bicarbonate); X1 = O=C(OCCOCCOCCOCCOCCOCCOCCOCCOCCOCCOCCOCCOC(=O)[*:2])[*:1]; NMeF = CN[C@@H](Cc1ccccc1)C(=O)O; Ahp(2) = CCCCC[C@H](N)C(=O)O; NMeC = CN[C@@H](CS)C(=O)O; Ahp′ = not defined here

What was measured:
[1] = biological target: T1, HGF R (Homo sapiens, UniProt P08581); experiment: Human Phospho-RTK array assay in A431 cells; format: cell-based; conditions: 10 minutes of stimulation, 2 nM complex, 7.8 nM HGF
T1 construct: endogenous in cells; host or cells: A431
Method: A431 cells were cultured in DMEM high glucose, GlutaMAX (registered trademark) Supplement, pyruvate (Thermo Fisher Scientific), containing 10% FBS (Gibco). After cells were detached using Accutase (registered trademark) (Innovative cell technologies), they were seeded into a 6-well plate at 1000000 cells per well and cultured overnight.
The next day, for starvation, the culture medium was changed to DMEM high glucose, GlutaMAX (registered trademark) Supplement, pyruvate (Thermo Fisher Scientific), containing an assay medium (0.1% BSA (Sigma-Aldrich)), and the cells were cultured overnight. Then, 7.8 nM Recombinant Human HGF Protein (R&D systems) or 2 nM complex (GFs_c-Met 00014336-PEG9 dimer; peptide complex No. 51 in Table 4) of peptide (SEQ ID NO: 34) synthesized in Example 2 and a linker (SEQ ID NO: 36) was added, and after 10 minutes of stimulation, cells were lysed in a Lysis Buffer provided in the Proteome Profiler Human Phospho-RTK Array Kit (R & D systems). Thereafter, the procedure was performed according to the protocol of the kit, and chemiluminescent signals by WesternSure (registered trademark) PREMIUM chemiluminescent substrate kit (LI-COR) were detected using C-DiGit (registered trademark) (Scrum).
In (2) in FIG. 5, a is the result of no addition, b is of addition of HGF, and c of addition of the peptide complex.

[2] = tested on: Renal proximal tubule epithelial cells (RPTEC); experiment: Evaluation of tube formation in collagen gel; format: cell-based
Method: Renal proximal tubule epithelial cells (RPTEC) were cultured in a growth medium (Renal Epithelial Cell Basal Medium (REBM)+0.5% FBS+2.4 mM L-Alanyl-L-Glutamine+10 nM Triiodothyronine+10 ng/mL rh EGF+100 ng/mL Hydrocortisone Hemisuccinate+5 μg/mL rh Insulin+1 μM Epinephrine+5 μg/mL Transferrin) (ATCC). The cells were detached using Trypsin-EDTA, and then resuspended in an assay medium (REBM+0.5% FBS+2.4 mM L-Alanyl-L-Glutamine+10 nM Triiodothyronine+100 ng/mL Hydrocortisone Hemisuccinate+1 μM Epinephrine+5 μg/mL Transferrin+1.8 mM CaCl2).
RPTECs were resuspended in a mixture of Cellmatrix (registered trademark) Type I-A (Nitta Gelatin Inc.), concentrated culture solution (Nitta Gelatin Inc.) and a reconstitution buffer solution (Nitta Gelatin Inc.) on ice according to the instructions. […]
To the assay medium, 2 nM HGF, 1.6 nM EGF or a complex GFs_c-Met-00014336-PEG13 dimer; peptide complex No. 49 in Table 4) of a peptide (SEQ ID NO: 34) synthesized in Example 2 and a linker (SEQ ID NO: 37) at 0.08, 0.4, 2, and 10 nM, was added and 400 μL of each resultant mixture was added to each well of 48-well plate to which the gelated suspension had been added as mentioned above. […] The presence or absence of tube formation was observed and evaluated using a phase-contrast microscope on the third day and the eighth day of the start of the culturing.

[3] = tested on: Normal human umbilical vein vascular endothelial cells (HUVECs); format: cell-based; conditions: HUVEC, cultured for 2 days after addition, FIG. 2; read-out: EC50 (HUVEC cell proliferation)
Method: In order to evaluate the biological activity of the peptide complex of the present invention, the cell proliferation inducing activity was verified. Normal human umbilical vein vascular endothelial cells (HUVECs) were cultured using HuMedia-EG2 (KURABO INDUSTRIES LTD.). After cells were detached using Accutase (Innovative cell technologies), they were resuspended in a Medium without serum or growth factors (Cell system) containing 5% FBS (MBL), seeded into a 96-well plate at 10000 cells per well, and cultured overnight. The next day, a complex (GFs_c-Met-00014336-PEG13 dimer; peptide complex no. 49 in Table 4) of the peptide (SEQ ID NO: 34) synthesized in Example 2 and a linker (SEQ ID NO: 37), or Recombinant Human HGF Protein (R&D systems) as a control was added and cultured for another 2 days. The medium was then removed and the cell count was determined quantitatively using the CellTiter-Glo (registered trademark) Luminescent Cell Viability Assay reagent (Promega) according to the protocol provided. A SpectraMax (registered trademark) Paradigm (registered trademark) multimode microplate reader (Molecular Devices, LLC.) was used for detection. The obtained signal value was analyzed by GraphPad Prism, and EC50 was calculated.

[4] = biological target: T2, c-Met (Homo sapiens, UniProt P08581); experiment: Phospho-c-Met AlphaLISA assay (c-Met agonist activity) in A431 cells; format: cell-based; conditions: phospho-c-Met AlphaLISA, A431 cells, FIG. 1; read-out: EC50 (c-Met agonist activity)
T2 construct: endogenous in cells; host or cells: A431 (human)
In short: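 Human A431 cells serum-starved overnight in 0.1% BSA medium, then stimulated 15 min with peptide complex, with HGF as control. Phospho-c-Met (Tyr1234/1235) in lysates measured by AlphaLISA SureFire Ultra. C50 is the peptide concentration giving 50% of the HGF-induced signal.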

[5] = biological target: T3, human c-Met protein (human, UniProt P08581 25-1390); experiment: cell-based or functional assay
[6] = biological target: T3, human c-Met protein; experiment: cell-based or functional assay; remark: listed apart in the source

T3 sequence (P08581 25-1390): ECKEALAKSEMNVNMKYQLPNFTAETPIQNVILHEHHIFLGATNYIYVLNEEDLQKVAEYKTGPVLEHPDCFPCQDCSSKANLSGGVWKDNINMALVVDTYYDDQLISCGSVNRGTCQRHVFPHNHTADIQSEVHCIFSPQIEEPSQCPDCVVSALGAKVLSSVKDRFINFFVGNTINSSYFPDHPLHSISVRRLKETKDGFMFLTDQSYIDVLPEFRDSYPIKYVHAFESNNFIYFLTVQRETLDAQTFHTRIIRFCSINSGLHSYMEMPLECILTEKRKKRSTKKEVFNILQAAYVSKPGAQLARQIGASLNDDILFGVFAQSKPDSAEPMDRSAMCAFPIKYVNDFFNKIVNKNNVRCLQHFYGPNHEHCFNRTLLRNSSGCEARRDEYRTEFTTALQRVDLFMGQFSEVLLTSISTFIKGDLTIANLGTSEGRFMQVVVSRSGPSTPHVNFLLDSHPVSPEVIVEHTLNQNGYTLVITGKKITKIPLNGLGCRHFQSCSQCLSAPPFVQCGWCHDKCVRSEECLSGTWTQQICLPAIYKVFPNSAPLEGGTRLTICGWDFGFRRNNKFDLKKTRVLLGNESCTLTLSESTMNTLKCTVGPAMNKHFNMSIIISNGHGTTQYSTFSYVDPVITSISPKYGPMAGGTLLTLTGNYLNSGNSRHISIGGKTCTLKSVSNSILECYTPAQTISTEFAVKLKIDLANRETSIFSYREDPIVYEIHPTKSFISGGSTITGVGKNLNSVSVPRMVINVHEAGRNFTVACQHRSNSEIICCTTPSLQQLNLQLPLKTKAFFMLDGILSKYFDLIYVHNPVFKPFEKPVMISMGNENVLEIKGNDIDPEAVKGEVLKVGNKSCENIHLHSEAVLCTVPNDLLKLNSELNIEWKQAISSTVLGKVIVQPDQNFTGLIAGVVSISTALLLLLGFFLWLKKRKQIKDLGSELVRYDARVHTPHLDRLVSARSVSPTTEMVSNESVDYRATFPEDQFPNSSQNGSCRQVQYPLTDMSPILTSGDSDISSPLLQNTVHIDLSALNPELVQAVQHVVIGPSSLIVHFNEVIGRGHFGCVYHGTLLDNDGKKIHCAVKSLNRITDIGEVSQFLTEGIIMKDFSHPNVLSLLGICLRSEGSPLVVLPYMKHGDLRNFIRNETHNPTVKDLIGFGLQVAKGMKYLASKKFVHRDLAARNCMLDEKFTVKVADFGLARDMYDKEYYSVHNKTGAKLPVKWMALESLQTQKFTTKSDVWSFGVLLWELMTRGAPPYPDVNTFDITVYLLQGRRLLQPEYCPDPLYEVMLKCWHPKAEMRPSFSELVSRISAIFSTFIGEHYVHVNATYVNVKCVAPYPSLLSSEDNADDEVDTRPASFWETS
T1 sequence (P08581 25-1390): as above
T2 sequence (P08581 25-1390): as above

Molecule: 51 ({CH2CO}-[NMeF]TAVS[NMeF]DED[Ahp′]PRWS[NMeC]; thioether N-15 (inferred); not fully specified; reading uncertain; also: conjugated moiety via linker) [compound 51]
specific phosphorylation pattern of receptor tyrosine kinases [1]: Only HGF R was specifically phosphorylated

Molecule: CCCCC[C@@H]1NC(=O)[C@H](CC(=O)O)NC(=O)[C@H](CCC(=O)O)NC(=O)[C@H](CC(=O)O)NC(=O)[C@H](Cc2ccccc2)N(C)C(=O)[C@H](CO)NC(=O)[C@H](C(C)C)NC(=O)[C@H](C)NC(=O)[C@H]([C@@H](C)O)NC(=O)[C@H](Cc2ccccc2)N(C)C(=O)CSC[C@@H](C(=O)NCC(=O)N[C@@H](CCCCNC(=O)OCCOCCOCCOCCOCCOCCOCCOCCOCCOCCOCCOCCOC(=O)NCCCC[C@H](NC(=O)CNC(=O)[C@@H]2CSCC(=O)N(C)[C@@H](Cc3ccccc3)C(=O)N[C@@H]([C@@H](C)O)C(=O)N[C@@H](C)C(=O)N[C@@H](C(C)C)C(=O)N[C@@H](CO)C(=O)N(C)[C@@H](Cc3ccccc3)C(=O)N[C@@H](CC(=O)O)C(=O)N[C@@H](CCC(=O)O)C(=O)N[C@@H](CC(=O)O)C(=O)N[C@@H](CCCCC)C(=O)N3CCC[C@H]3C(=O)N[C@@H](CCCNC(=N)N)C(=O)N[C@@H](Cc3c[nH]c4ccccc34)C(=O)N[C@@H](CO)C(=O)N2C)C(N)=O)C(N)=O)N(C)C(=O)[C@H](CO)NC(=O)[C@H](Cc2c[nH]c3ccccc23)NC(=O)[C@H](CCCNC(=N)N)NC(=O)[C@@H]2CCCN2C1=O [compound 49] (I: {CH2CO}-[NMeF]TAVS[NMeF]DED[Ahp(2)]PRWS[NMeC]GK-NH2 / II: {CH2CO}-[NMeF]TAVS[NMeF]DED[Ahp(2)]PRWS[NMeC]GK-NH2; linker I:17-II:17 via X1 (inferred); thioether I:N-I:15, II:N-II:15 (inferred); C-terminus assumed)
tube formation ([2]; RPTEC in collagen gel, 0.08-10 nM, third and eighth day, phase-contrast microscope): promoted tube formation
tube formation with branching ([2]; RPTEC, 10 nM complex, eighth day (f of FIG. 4)): not only tube formation but also branch formation was promoted
EC50 [3]: 0.55 nM

Continued, in another order:

EC50 [4]: 0.66 nM
Molecule: HGF: Recombinant Human HGF Protein (R&D systems), hepatocyte growth factor, used as a control
specific phosphorylation pattern of receptor tyrosine kinases [1]: Only HGF R was specifically phosphorylated
EC50 [3]: 0.37 nM

EC50, HUVEC cell proliferation (CellTiter-Glo) [5]: 0.55 nM
EC50, phospho-c-Met AlphaLISA, A431 cells (FIG. 1) [5]: 0.72 nM
C-Met Agonist Activity (C50; nM): phospho-c-Met AlphaLISA, A431 cells [6]: 0.67 nM
B1: GFs_c-Met-00014336-PEG13 dimer (peptide SEQ ID NO: 34, GFs_c-Met-00014336p; linker SEQ ID NO: 37) (peptide)
peptide: {CH2CO}-[NMeF]TAVS[NMeF]DED[Ahp(2)]PRWS[NMeC]
chain: GK[OCOPEG13OCO]KG
modifications: thioether I:N-I:15 (inferred); also: homodimer: two cyclic peptides joined by linker G-K-OCOPEG13OCO-K-G, peptide C-terminus on linker
